Assay results taken from PMC2266796.

Tests used:
Assay in all cases: SEC-MALS; 100 ug purified Strep-tagged PfPdx1 on Superdex 200 10/30 with static light scattering (miniDAWN Tristar); 100 mM Tris-HCl pH 8.0, 150 mM NaCl, no amino acid added
[1] = molecular target: PfPdx1 D26A (P. falciparum) (UniProt C6KT50)
[2] = molecular target: PfPdx1 ERR (E136A/R139A/R140A) triple mutant (P. falciparum) (UniProt C6KT50)
[3] = molecular target: PfPdx1 K83A (P. falciparum) (UniProt C6KT50)

## PfPdx1 D26A (from UniProt C6KT50 1-301) (enzyme)
[1]
  stoichiometry N: 12

## PfPdx1 ERR (E136A/R139A/R140A) triple mutant (from UniProt C6KT50 1-301) (enzyme)
[2]
  stoichiometry N: 12

## PfPdx1 K83A (from UniProt C6KT50 1-301) (enzyme)
[3]
  stoichiometry N: 12
